Earlier results as cited in publication PMC11589041.
Several values for one entry are separate records, joined by “and”; a condition that tells them apart may be missing. Equal values may be shown once.

Key:
[1] = molecular target: mDia1 DAD DAD (Mus musculus) (UniProt O08808)
[2] = molecular target: INF2 DAD DAD (Homo sapiens) (UniProt Q27J81)
Chain of INF2 DAD DAD (Homo sapiens) (Q27J81 967-1000): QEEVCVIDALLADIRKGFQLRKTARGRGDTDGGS

Chain of INF2 DID DID (Q27J81 1-267): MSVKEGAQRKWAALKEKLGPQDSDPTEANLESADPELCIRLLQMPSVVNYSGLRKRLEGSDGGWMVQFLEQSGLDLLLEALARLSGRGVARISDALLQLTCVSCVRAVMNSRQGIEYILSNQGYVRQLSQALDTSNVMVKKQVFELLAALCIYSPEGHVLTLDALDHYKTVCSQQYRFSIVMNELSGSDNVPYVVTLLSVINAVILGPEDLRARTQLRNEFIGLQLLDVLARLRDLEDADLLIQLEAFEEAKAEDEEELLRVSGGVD
Chain of mDia1 DAD DAD (Mus musculus) (O08808 1174-1208): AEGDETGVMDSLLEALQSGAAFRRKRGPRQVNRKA
Chain of mDia1 DID DID (O08808 129-369): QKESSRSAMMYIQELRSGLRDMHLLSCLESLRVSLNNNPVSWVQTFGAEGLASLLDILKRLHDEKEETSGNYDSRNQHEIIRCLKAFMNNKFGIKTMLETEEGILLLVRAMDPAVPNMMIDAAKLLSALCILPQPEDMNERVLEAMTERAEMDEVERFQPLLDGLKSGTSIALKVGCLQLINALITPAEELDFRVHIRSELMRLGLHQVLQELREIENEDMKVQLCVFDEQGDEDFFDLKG

Row | Kd [1] [µM] | Kd [2] | Substance
1 | 0.265 | – | mDia1 DID DID (from UniProt O08808)
2 | – | 22 µM and 5.4 µM | INF2 DID DID (from UniProt Q27J81)
